Laboratory results: article PMC3597821

B1: bantam guide / 43-nt target (1-12 match) (dsRNA)
RNA 1: UGAGAUCAUUUUGAAAGCUGAUU
RNA 2: AGUUCUUAAGUUAGUCGAAACAAAAUGAUCUCACAUAGGCUUA
modifications: target printed as DNA letters, assayed as RNA
B2: bantam miRNA 23 nt (ssRNA)
RNA: UGAGAUCAUUUUGAAAGCUGAUU
modifications: 5' phosphate on labeled RNA (PNK)

Assays:
DmAgo1 WT = DmAgo1 WT (Drosophila melanogaster, UniProt A1Z9J5 1-950); experiment: filter binding
DmAgo2 = target: T1, DmAgo2 (Drosophila melanogaster, UniProt Q9VUQ5 403-1214); experiment: competitive double filter binding
T1 sequence: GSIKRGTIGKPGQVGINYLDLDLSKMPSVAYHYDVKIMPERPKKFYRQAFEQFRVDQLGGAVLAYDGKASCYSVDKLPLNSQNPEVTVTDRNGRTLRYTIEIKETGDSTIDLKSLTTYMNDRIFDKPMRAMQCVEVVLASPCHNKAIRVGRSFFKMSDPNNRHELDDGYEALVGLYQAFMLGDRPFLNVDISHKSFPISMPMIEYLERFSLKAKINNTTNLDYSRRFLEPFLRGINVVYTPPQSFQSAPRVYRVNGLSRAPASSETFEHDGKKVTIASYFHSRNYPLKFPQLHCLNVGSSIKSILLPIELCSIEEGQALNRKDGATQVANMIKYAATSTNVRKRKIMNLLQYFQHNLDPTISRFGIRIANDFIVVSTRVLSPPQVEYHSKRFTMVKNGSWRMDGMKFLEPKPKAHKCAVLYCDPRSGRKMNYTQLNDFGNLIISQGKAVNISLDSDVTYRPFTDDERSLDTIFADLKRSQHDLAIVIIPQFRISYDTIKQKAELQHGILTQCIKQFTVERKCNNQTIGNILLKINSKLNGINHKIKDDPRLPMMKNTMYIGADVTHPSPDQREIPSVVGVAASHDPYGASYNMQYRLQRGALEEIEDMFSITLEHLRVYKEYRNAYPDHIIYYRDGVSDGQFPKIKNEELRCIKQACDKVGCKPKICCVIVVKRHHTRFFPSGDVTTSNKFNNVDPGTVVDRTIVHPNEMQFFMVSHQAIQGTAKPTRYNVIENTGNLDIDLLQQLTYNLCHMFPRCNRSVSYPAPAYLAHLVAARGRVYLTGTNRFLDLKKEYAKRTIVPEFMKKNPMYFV

Row | Binder | binding result (DmAgo1 WT) | Kd (DmAgo2) [nM]
1 | B1 | binds | 
2 | B2 |  | 10.7 ± 1
